B1: ATPase family AAA domain-containing protein 2 (Mus musculus), Q8CDM1 (parent)
chain: MSLLKMRRHAIHSSDSTSSSSSEDDCFERRTKRNRNRAINRCLPLNFRKDEIRGIYKDRMKIGASLADVDPMQLDTSVRFDSVGGLSSHIAALKEMVVFPLLYPEVFEKFKIQPPRGCLFYGPPGTGKTLVARALANECSRGDKRVAFFMRKGADCLSKWVGESERQLRLLFDQAYQMRPAIIFFDEIDGLAPVRSSRQDQIHSSIVSTLLALMDGLDSRGEIVVIGATNRLDSIDPALRRPGRFDREFLFSLPDKNARKEILKIHTRDWNPKPVDMFLEELAEHCVGYCGADIKSICAEAALCALRRRYPQIYTTSEKLQLDLSSITISAKDFEAALQKIRPASQRAVTSPGQALSAIVKPLLQNTVHRILDALQKVFPHVEVGTNKSLNSDVSCPFLESDLAYSDDDTPSVYENGLSQKENLNFLHLNRNACYQPMSFRPRLLIVGEPGFGQSSHLAPAVIHALEKFTVYTLDIPVLFGISTTSPEEACSQMIREAKRTAPSIVYVPHIHLWWEIVGPTLKATFTTLLQTIPSFAPVLLLATSEKPYSALPEEVQELFTHDYGEIFNVQLPDKEERTKFFEDLILKQASKPPVSQKKAVLQALEVLPVAPPPEPRPLTAEEVKRLEEQEEDTFRELRIFLRNVTHRLAIDKRFRVFTKPVDPDEVPDYVTVIKQPMDLSSVISKIDLHKYLTVKDYLKDIDLICSNALEYNPDRDPGDRLIRHRACALRDTAYAIIKEELDEDFEQLCEEIQESRKKRGCSSSKYAPSYYHVMPKQNSPPVGDKKPDQEQNEKLKVPCTPVACSTPAQLKRKFHKKSKWHVGTKIKRRKISQAKDNSLNAMNSSSRSDTEDSQHTHAEHTEPGNTDESSVEESDKQNRLESNIDLKNNSSSSNIENELEEPKETTEGTELRKDRIVCRGDASASQVTDIPEDSESKEMDFLRMTLARGSQVEQQELISMEQALAILSQPTPSLVLDHKQLTNILKTVVKKSQKYNIFQLENLYAVISQCIYEHRRDYDKTALVQKMEQAVENFNCSRS

Variants of: B1
Details: with h4_mouse H4c11, P62806

Row | effect of a mutation on the interaction | Variant
1 | disrupting interaction | K128S
2 | disrupting interaction | Y670F
